From article doi:10.1101/2024.01.20.576400 (bioRxiv, 2024)
pKd: −log10 of the molar value.

Assays:
[1] = target: Pwl2-2 (Magnaporthe oryzae); assay: ITC
[2] = target: Pwl2-3 (Magnaporthe oryzae); assay: ITC

HMA domain of OsHIPP43 (residues 26-101) (from UniProt Q8LJL3 26-101) (domain or fragment)
pKd [1]: 6.85
pKd [2]: 7.46
